Source: a protein production outcome set (Wang et al. 2014)

Experiment: label from the status in PepcDB records

Q: With “MTDTLLVTSTNAGTGKTAVSLALARLAGDRDRTVGYMKPKGTRLQSNVGKTLDADPLLARDLLDLDAEIHDLEPVVYSPTFIQGAVRGREDSANLADRVRDAYDELATDRDVMLVEGAGTPTTGGIVDLTDGDIAALLDARAIVVADYTGPSDVDDVLAAADALGDRCAGVVFNAVADAVYDDVESEVTPFLESQGIPVLGVLPVERDLAGVTVDDLASELGATVLTEDTATTDAIVERFLVGAMSSESALSHFRRTKDAAVITGGDRADIQTAALDAPGVQCLVLTGGHRPSGAVLGKATDAGVPVLSVDADTLTTLERAEELVRDGRVRDEHTVDVMQRLLHDHADTDRLLD” as the sequence, how does the protein production read?
A: failed

Q: With “MTDTPVPSEATASGWRRALPVIISLAILAMALHALSSQFTDHGYRQIRQAFRALGAGQIALTLLLGLSSYACLVGFDWVGLKRTGKRLHPARVGITAFMAHAVGQTLGFAALTGGAVRLRGYGSVGLTLAEIGQVVLMSTLGFIFGAWVLLGIALMLEPEAAARALPIAAEGIRIAGIALLAGYLAMLVLVGRHGREFGIRSHRFWLPDRTTVLGVTALSVVELGLAAAAFYVLLPPDPGTGYFGFIGIWLVAVVAGLISTVPAGLGVFEWSLLKLLPHVTPAAVLAAALAYRVTYYIVPLLISVAMAAATGLRAPVRASASTARTVWKTLRPWLPQILALAVFAVGAALVIDGTLPTPRARQEVAPLPLIETSHLLVSLGGMLLLLIGQGLQRRSHSAWVLALGVCVLLPPLSLLRGSHISVSLSAALAAVALWAARREFYRQGALLDEAWSWRWLSNLGLVLVATFWLLFFVYSHVEYSNDLWWQFATSANAPRALRALLILCVGVILFGTARLLRGGRRPMPPADAQALQALAPVLASSADTQACLALTGDKAFLRDEKGLGFVMMQRYGGSLISMGDPVGPPEVARALIWRFREEADHMGLRPVFYQVGEKYWQTYLDMGLTLVKLGEEAIVPLEGFTLEGRDRADLRQAWNRGKRGGLSFRMLQPEQVDAVMAELGEVSEQWLDEKAGEEKGFSLGSFDPDYLRRFPMAVAEAEGKIVAFANVWCAPAGGELSVDLMRHSAQAPKGTMDFLFIELFLWGHANGYTRFSLGMAPLSGLAEHRLAGRWNRFASLVARHGERFYGFSGLRRFKSKFAPTWRPRYLVAPGGMHLPAALLDVTRLISVDPGRQD” as the sequence, how does the protein production read?
A: failed

Q: For “MTDTRPAQSLGPGLQPETRSLGDEPVRLVDTTMLYAPRSGGVRRYLSSKRAWLASHRPDVRHTLVVPGARDFHDGRGQVSIYAAPLPFGAGYRWPVVKQTWMERLIRQQPDLIEAGDPYTPGLAALRAGDALGVPVVGFCHTDLGKLAALHIGDWAEKPVQKRWAAIYRQFDQAVAPSRFIAGRLIEAGVRDAIGLPLGVDTAIFHPERGDRDGLRRRLGLSPKDRLLVFAGRPAREKKLDVLVAAVERLGDPYKLLFVGAGGGAPVSDRTLCIDYVRDPVELASILASCDAFVHANDNEPFGLIVLEAMACGLPVVGVSAGGVAESVDAAVGQLAVASEATAFADAIEALFERDVTVVGEAARRRAVERHGWDAVFTELCLIYDRLTGRRAFSSASAHAGH”, which protein production is on record?
A: failed

Q: With “MTDTSTADVDLVGEEMALNVARTALFAALMGAFAYVSFPYPLSPAPVTLQVLGVFLAGLLLGPLWGGAAMVVYLLAGVLGAPVFSAGEAGIGVILGPQGGYLLSYPFAAAIVGGIVHRGTDIKPLETVSAALMIAAMILSTVVIYAFGIPFMWWNLEMTLLNAVIAGGVVFIPAEAAKMAAAIGIVRSDAIRAE” as the sequence, how does the protein production read?
A: failed

Q: With “MTDVRHCPAVLIAAPASGQGKTTVTAALARLHRNRGRKVRVFKCGPDFLDPMILERASGAAVYQLDMWMVGEQESRRLLWEAAGEADLILIEGVMGLFDGTPSSADLARHFGVPVLGVIDGTAMAQTFGALALGLARYQPDLPFAGVLANRVGTLRHAQLLEGSLTEGLRWYGALSRETDIELPSRHLGLVQASELNDLDLRLDAAAEALASSCQVELPPAVSFAAPTPVACAPLLKGVRIAVARDEAFAFTYGASLDLLRAMGAQLSFFSPIHDTQLPDADSLYLPGGYPELHHQALARNSSMLQAIRAHHAAGKPLLAECGGMLYLLDSLTDVEGQRAELLGLLPGDAVMQKRLAALALQAVDLPEGSLRGHTYHHSLTSTELLPIARGLSPNGGRGAEAVYRQGRMTASYVHFYFPSNPAAVAALFAPGAPVEPVLAEGVAGELEHHHHHH” as the sequence, how does the protein production read?
A: failed

Q: With “MTDYASLLMSLTSGSALDSGCMEQLIQEGLYVTPALFSVDRAALWVLDKDEQAYLCEADFFDGMIDHRSSQRLTKKEDAELFSFLESTSEIIINNYFTYESFGLNTSRILSRFQLCSLLLIPLQIKGENRGFIFLGDSQKNIEWSPDVLFASRILVQLFERALLALDNSVAETKLQHQYQLMSEIEKLAK” as the sequence, how does the protein production read?
A: failed

Q: Which protein production does the source give for “MTDYGEEQRNELEALESIYPDSFTVLSENPPSFTITVTSEAGENDETVQTTLKFTYSEKYPDEAPLYEIFSQENLEDNDVSDILKLLALQAEENLGMVMIFTLVTAVQEKLNEIVDQIKTR” here?
A: not failed
